Key:
NsLOX = target: T1, NsLOX (Nostoc sphaeroides, UniProt A0A5P8W1C8); experiment: absorbance at […] nm, Lineweaver-Burk; type: biochemical; conditions: optimum assay conditions: 20 mM Tris-HCl pH 8.0, 15 °C, substrate 20-100 μM
T1 construct: gene GXM_03308; full length, 455 residues (52 kDa) plus 2 kDa His tag from pET-28a(+) NdeI/XhoI, tag kept; codon-optimised synthetic gene; E. coli BL21(DE3); Ni-NTA; about 54 kDa; C-terminal Ile455; no N-terminal PLAT domain
T1 sequence (A0A5P8W1C8 1-455): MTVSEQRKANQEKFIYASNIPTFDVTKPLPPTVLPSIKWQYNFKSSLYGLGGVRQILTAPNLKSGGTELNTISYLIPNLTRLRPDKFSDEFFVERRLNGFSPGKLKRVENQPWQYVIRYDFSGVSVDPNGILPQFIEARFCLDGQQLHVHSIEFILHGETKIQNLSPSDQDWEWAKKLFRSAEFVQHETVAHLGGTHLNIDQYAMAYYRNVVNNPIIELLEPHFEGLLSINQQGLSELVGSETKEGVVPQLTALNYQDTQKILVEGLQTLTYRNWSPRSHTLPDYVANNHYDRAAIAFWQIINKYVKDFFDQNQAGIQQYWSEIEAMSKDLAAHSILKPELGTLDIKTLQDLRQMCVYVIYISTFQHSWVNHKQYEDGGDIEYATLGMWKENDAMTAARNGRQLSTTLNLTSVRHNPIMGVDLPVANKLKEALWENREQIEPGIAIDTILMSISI

purified protein = substrate: CCCCC/C=C\C/C=C\C/C=C\C/C=C\CCCC(=O)O; experiment: purified protein; type: biochemical, Nostoc sphaeroides; conditions: optimum assay conditions: 20 mM Tris-HCl pH 8.0, 15 °C, substrate 20-100 μM

CCCCC/C=C\C/C=C\CCCCCCCC(=O)O [LA, Linoleic acid]
Km (NsLOX): 19.5 ± 1.24 µM

CC/C=C\C/C=C\C/C=C\CCCCCCCC(=O)O [ALA, α-Linolenic acid]
Km (NsLOX; Km above tested substrate range): 151 ± 6.39 µM

B1: NsLOX (Nostoc sphaeroides CCNUC1) (protein)
chain: T1 sequence (A0A5P8W1C8 1-455)
notes: full length, 455 residues (52 kDa) plus 2 kDa His tag from pET-28a(+) NdeI/XhoI, tag kept; codon-optimised synthetic gene; E. coli BL21(DE3); Ni-NTA; about 54 kDa; C-terminal Ile455; no N-terminal PLAT domain
Km (purified protein): 571.22 ± 26.88 µM
Vmax (purified protein): 30.6 µM/min
kcat (purified protein): 7300 ± 145 s⁻¹
kcat/Km (purified protein): 1.28e+07 M⁻¹ s⁻¹

From PMC10177866, “Computational Insights and In Silico Characterization of a Novel Mini-Lipoxygenase from Nostoc Sphaeroides and Its Application in the Quality Improvement of Steamed Bread” (International Journal of Molecular Sciences, 2023)
